Source: US20140093973A1
Values joined by “and” are separate entries in the source; they are usually repeats but may differ in a detail not shown here. Identical values can stand only once. Like-named read-outs stand apart in the source and are kept apart here. Ends that are not written are not given here. * marks the point of attachment. FITC = O=C1OC2(c3ccc(O)cc3Oc3cc(O)ccc32)c2ccc(NC(=S)*)cc21

What was measured:
[1] = target: soluble HLA-A*0201 (sHLA-A*0201) (human); experiment: standardized FP competition against 1 nM FITC-P5, 50 ug/mL sHLA-A*0201, excess b2m
[2] = target: soluble HLA-A*0201 (sHLA-A*0201) (human)
[3] = target: soluble HLA-A*0201 (sHLA-A*0201) (human); experiment: FP equilibrium titration with variable pFITC, 425 nM sHLA-A*0201, 20 C
[4] = target: soluble HLA-A*0201 (sHLA-A*0201) (human); experiment: FP real-time association kinetics, intercept of kob against ligand concentration
[5] = target: soluble HLA-A*0201 (sHLA-A*0201) (human); experiment: FP real-time association kinetics, 50 ug/mL sHLA-A*0201, excess b2m, 20 C
[6] = target: soluble HLA-A*0201 (sHLA-A*0201) (human); experiment: FP kinetics, Kd = koff/kon
[7] = target: soluble HLA-A*0201 (sHLA-A*0201) (human); experiment: FP, sHLA-A*0201 titrated against 10 nM FITC-labeled P4; the EC50 is an sHLA concentration
[8] = target: soluble HLA-A*0201 (sHLA-A*0201) (human); experiment: FP saturation isotherm (bound against free pFITC), 425 nM sHLA-A*0201, one-site fit
[9] = target: soluble HLA-A*0201 (sHLA-A*0201) (human); experiment: FP, sHLA-A*0201 titrated against 10 nM FITC-labeled P4, plateau of the fit
[10] = target: soluble HLA-A*0201 (sHLA-A*0201) (human); experiment: FP, pFITC P4 titrated at 425 nM (20 µg/ml) sHLA-A*0201; FPmin = 27.00 mP
[11] = target: soluble HLA-A*0201 (sHLA-A*0201) (human); remark: listed apart in the source
[12] = target: soluble HLA-A*0201 (sHLA-A*0201) (human); remark: listed apart in the source
[13] = target: soluble HLA-A*0201 (sHLA-A*0201) (human); remark: listed apart in the source
[14] = target: soluble HLA-A*0201 (sHLA-A*0201) (human); remark: listed apart in the source
[15] = target: soluble HLA-A*0201 (sHLA-A*0201) (human); remark: listed apart in the source
[16] = target: soluble HLA-A*0201 (sHLA-A*0201) (human); remark: listed apart in the source
[17] = target: soluble HLA-A*0201 (sHLA-A*0201) (human); remark: listed apart in the source
[18] = target: soluble HLA-A*0201 (sHLA-A*0201) (human); remark: listed apart in the source
[19] = target: soluble HLA-A*0201 (sHLA-A*0201) (human); remark: listed apart in the source
[20] = target: soluble HLA-A*0201 (sHLA-A*0201) (human); remark: listed apart in the source
[21] = target: soluble HLA-A*0201 (sHLA-A*0201) (human); remark: listed apart in the source
[22] = target: soluble HLA-A*0201 (sHLA-A*0201) (human); remark: listed apart in the source
[23] = target: soluble HLA-A*0201 (sHLA-A*0201) (human); remark: listed apart in the source
[24] = target: soluble HLA-A*0201 (sHLA-A*0201) (human); remark: listed apart in the source
[25] = target: soluble HLA-A*0201 (sHLA-A*0201) (human); remark: listed apart in the source
[26] = target: soluble HLA-A*0201 (sHLA-A*0201) (human); remark: listed apart in the source

B1: … (peptide)
peptide: YLLPAIVHI
modifications: not checked
[1]
  IC50: 510 nM

B2: … (peptide)
peptide: DLVHFASPL
modifications: not checked
[2]
  IC50: 366000 nM

B3: A*0201/P4, FITC-labeled peptide … (peptide)
peptide: LVFGKEVVEV
modifications: not fully specified
[3]
  Kd: 21.8 nM
[4]
  koff: 0.000284 s⁻¹
[5]
  kon: 9900 M⁻¹ s⁻¹
[6]
  Kd: 28.5 nM
[7]
  EC50: 283 nM
[8]
  Bmax: 89.7 nM
  Kd: 21.8 nM
[9]
  FPmax: 230 mP
[10]
  FPmax: 200 mP

B4: A*0201/P5, FITC-labeled peptide ALMDKVL-K(FITC)-V (peptide)
peptide: ALMDKVLK(FITC)V
[11]
  Kd: 17.3 nM
[12]
  FPmax: 195 mP
[13]
  % binding: 40%
[14]
  EC50: 327 nM
[15]
  maximal FP signal: 220 to 230 mP
[16]
  increase of signal upon binding: > 900%
  maximum polarization signal: 245 mP
[17]
  Bmax: 141 nM
  Kd: 17.3 nM

B5: … (peptide)
peptide: KLGEFYNQMM
modifications: not checked
[18]
  IC50: 596 nM
[19]
  IC50: 2480 to 10500 nM
[20]
  IC50: 7670 nM
[21]
  IC50: 2480 nM
[22]
  log IC50: 3.08 log nM and 3.45 log nM
[23]
  IC50: 2870 nM
[24]
  IC50: 10500 nM
[25]
  IC50: 3060 nM
[26]
  log IC50: 3.31 log nM and 3.7 log nM and 3.67 log nM
[2]
  IC50: 2820 nM
